Consider 3 molecules from paper PMC13066552 (Nature Communications, 2026).

The target in data set [1] is Bpa 31-146 (Mycobacterium tuberculosis) (UniProt P9WKX3). The experiment in a line: NMR titration.
Data set [2] deals with the molecule itself. In words: native MS.
Data set [3] concerns the molecule itself. The experiment in a line: methyl-TROSY NMR spectra compared.

The term Kd denotes a measure of binding affinity in units of concentration. Low readings indicate a tighter complex, high ones a looser complex. “DNA-binding domain of human Telomeric Repeat-binding Factor 1 (residues 378-430) (domain or fragment)” had a Kd in data set [1] of 1500 nM.

B1: Mycobacterium tuberculosis bacterial proteasome activator Bpa, full-length wild type (natural protein)
chain: MVIGLSTGSDDDDVEVIGGVDPRLIAVQENDSDESSLTDLVEQPAKVMRIGTMIKQLLEEVRAAPLDEASRNRLRDIHATSIRELEDGLAPELREELDRLTLPFNEDAVPSDAELRIAQAQLVGWLEGLFHGIQTALFAQQMAARAQLQQMRQGALPPGVGKSGQHGHGTGQYL
The stoichiometry N is a count of units in the complex or per binding partner. Turning to B1, in data set [2], the “stoichiometry N” value was 2 subunits.

B2: Bpa 31-146 (domain or fragment)
chain: DSDESSLTDLVEQPAKVMRIGTMIKQLLEEVRAAPLDEASRNRLRDIHATSIRELEDGLAPELREELDRLTLPFNEDAVPSDAELRIAQAQLVGWLEGLFHGIQTALFAQQMAARA
For B2, in data set [3], the “stoichiometry N” value is 12 subunits.
